This note sets out measurements from article PMC11098746 (2024).

One assay addresses T1, ADP269.
T1 chain: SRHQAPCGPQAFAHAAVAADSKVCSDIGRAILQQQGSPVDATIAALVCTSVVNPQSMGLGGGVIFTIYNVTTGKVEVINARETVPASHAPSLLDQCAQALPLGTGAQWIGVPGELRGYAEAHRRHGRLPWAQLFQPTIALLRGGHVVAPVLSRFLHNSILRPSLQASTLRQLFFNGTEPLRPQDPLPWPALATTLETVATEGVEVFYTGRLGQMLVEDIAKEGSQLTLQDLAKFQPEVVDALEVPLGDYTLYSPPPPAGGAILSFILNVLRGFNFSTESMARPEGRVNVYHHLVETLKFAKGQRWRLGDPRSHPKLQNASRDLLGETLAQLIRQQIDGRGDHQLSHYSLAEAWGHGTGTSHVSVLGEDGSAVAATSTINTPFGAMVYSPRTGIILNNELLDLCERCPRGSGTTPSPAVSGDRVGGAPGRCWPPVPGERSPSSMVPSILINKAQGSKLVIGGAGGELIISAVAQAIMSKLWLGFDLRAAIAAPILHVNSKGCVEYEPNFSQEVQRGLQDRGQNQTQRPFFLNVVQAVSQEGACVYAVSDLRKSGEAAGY
Description: AVEXIS screen signal:noise (double-corrected).

The target of a further assay is T2, ADP389.
T2 chain: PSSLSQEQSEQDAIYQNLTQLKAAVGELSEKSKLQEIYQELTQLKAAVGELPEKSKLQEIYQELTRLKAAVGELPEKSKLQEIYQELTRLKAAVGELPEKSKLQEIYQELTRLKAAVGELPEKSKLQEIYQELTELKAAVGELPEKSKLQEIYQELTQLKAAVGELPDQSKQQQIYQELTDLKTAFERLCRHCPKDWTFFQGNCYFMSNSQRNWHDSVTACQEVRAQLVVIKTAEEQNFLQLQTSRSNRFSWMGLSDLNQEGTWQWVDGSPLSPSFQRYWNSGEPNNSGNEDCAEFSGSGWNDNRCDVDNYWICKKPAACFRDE
Description: AVEXIS screen signal:noise (double-corrected).

B1: ADP191 (protein)
chain: IYYCNDNILENANNDDSTKDINNINKNSANKAKSEKTSNYNNDQYNIDDAYNEDEENDEEEGDDDENDHFEVPINCAGGNCFDSMDDINKIIDNKKKKMKYRRRRGKAIQIIKPNVNHAELIIIEENLEIFKRIDKPIAIVSVLGDMHTGKSFLLNLLNEHVIPDINKANKYIENGFKVGNDITASTYGIWIWSEPIRINVKKLKKIYEYINENFANFIKSYEYEKDEYNEEIIDLLNLYKTDDWISNVEELNLADTDEVNLILMDTQGLNSPNVNKRYDEILYALTNLISTDIIFLTMKMINNKDLEFIENIAKDANLFMLRAYTRSSGSTFSIKKNNFHKILDTLNNNLENNALILESIASKNLMWVVHDFSQRLDVRKGKLWLDILLNSDRRDLDIKYWKKIISNKAKDKHDAYTTKKQKIAYLTYNENSASGLLPNNNNNNNNANDASSNYKLNILYKNIDCVLLRNMYHNKEFDFTKANINDLNEEYKNDVLLLRYKIYLRALLFPKKMYSDVQINNIINKIRKEQKLREEQEKNKDNKKNDANNQANDLNSNKDETSGSQVTNRFMSGHDVYDFITFLVKSANQNLFTNVNQFFKHFKINRAEISRNDLIFLYKKYLLQFMENEDVEFISNLNDENDDLFLQKEGNNAAVNHDENSDADSLFNDHDENMQLKEHNIKDGEDNTHQKKDSYKLPPLLNEIKKYEELIREQILNIWYKYTESDFHDEEEKELIKDIENNLYERLDQIKIEMLELGEMNIRKFCKIACEDALQIVVEDIKMKSDQYPIKQKDLTTFFESVSYNLIKYLEKKLSKNSDKLDLIYYKDNICSPLINNAFQEFYFLKKKNIALNENRLKSYFSNAVEKGKEVFEVLAENTENIAEYFKNKNMFYTVLDKWTSEAINTYTLTLSDFAKEEKEINDEYLNVLNNDIKLLKQKAMEKWHNHCRDKTSALYNMHKSNLKKNFLENFNFPLDELVLQDIFLNLKGQEELKYMDIYCANEDSWNSEYKNFLKLTDEIFQFIKDENLKAIQITCQQPLDELKNGIKGEIHKYYLWSSLKSTLYNRALIVLSSNIENIYIKNQRENKIQSNLDEKYNNKNKNYKRISKDLMSKVINRWLNNDIYNVYYP
modifications: bait human Fc-tagged dimer; N-glycosylation sequons mutated in Plasmodium baits
In turn, B1 gave a binding score with ADP269 of 9.74.

B2: ADP236 (protein)
chain: EFVKGSYESKGYPLIHLMNNNEYTGSANNFIKNNLINLLYIYKDVKFDEEKTLGIDSFLDIEDDTKIERLIKEKMLYINKYINSRQMIKYSGFIYLYEIIEKKNFYFLLHFLMTNNNNGLIIILPEDMYINVDEYYRINKINKLNDQNKKNKVVSQDLLEKRIMFVQSLILNMKLQQSIYFIKNNKDIEKIYENYQSKFAYFDLTRNVAISPISKIQNVYKMNSKSLYYFLNKNNNIHINTIFNKQQDNQAFLLTKQKTIIICADFNVFNIFSDLPSNTAFTNSNLITIQNLIKLFYDVYNKEQVNYNILFFFTNYYYGIQDFLNSINVIFKENIEFVICLDNLNNADFYIYESNKAQPQNVQAFYRILNNIVKGSIKKNVQMVNEKIKIHSKHLPSLHEYFVLNKINSFSLSSSKKNNNMIFLNKFPMLQPKLNIQNVKNNIAIIFKSLYLYMTQKKTDQKENTQQEQSIEKNEKEKSMLTYINKNMASNDDMNTIDYNLNKYNKFFIYKEDTLKLFNYFKTIINSNIADTNFLIKDYKLTTDKKQKFFYQKYAHVTFSMAISYVFH
modifications: bait human Fc-tagged dimer; N-glycosylation sequons mutated in Plasmodium baits
B2 showed a binding score with ADP389 of 5.5.
